Results from patent US20070059727A1.

Biological target: microtubules assembled from fluorescein-modified bovine brain tubulin (α-/β-tubulin heterodimers) (bovine)
Assay: cell-based or functional assay

An average MT length after 5 min of polymerization (MTs on GST-γ-tubulin-functionalized gold pads against MTs grown in solution) of 1.68 micron and an average MT length after 10 min of polymerization (MTs on GST-γ-tubulin-functionalized gold pads against MTs grown in solution) of 3.47 micron were found for “Glutathione S-Transferase (GST)-tagged γ-Tubulin fusion protein (from UniProt P23258 1-451)” in this work.
